Target: T1, UkCpf1 (in cells) (uncultivated microorganism (metagenome))
T1 chain: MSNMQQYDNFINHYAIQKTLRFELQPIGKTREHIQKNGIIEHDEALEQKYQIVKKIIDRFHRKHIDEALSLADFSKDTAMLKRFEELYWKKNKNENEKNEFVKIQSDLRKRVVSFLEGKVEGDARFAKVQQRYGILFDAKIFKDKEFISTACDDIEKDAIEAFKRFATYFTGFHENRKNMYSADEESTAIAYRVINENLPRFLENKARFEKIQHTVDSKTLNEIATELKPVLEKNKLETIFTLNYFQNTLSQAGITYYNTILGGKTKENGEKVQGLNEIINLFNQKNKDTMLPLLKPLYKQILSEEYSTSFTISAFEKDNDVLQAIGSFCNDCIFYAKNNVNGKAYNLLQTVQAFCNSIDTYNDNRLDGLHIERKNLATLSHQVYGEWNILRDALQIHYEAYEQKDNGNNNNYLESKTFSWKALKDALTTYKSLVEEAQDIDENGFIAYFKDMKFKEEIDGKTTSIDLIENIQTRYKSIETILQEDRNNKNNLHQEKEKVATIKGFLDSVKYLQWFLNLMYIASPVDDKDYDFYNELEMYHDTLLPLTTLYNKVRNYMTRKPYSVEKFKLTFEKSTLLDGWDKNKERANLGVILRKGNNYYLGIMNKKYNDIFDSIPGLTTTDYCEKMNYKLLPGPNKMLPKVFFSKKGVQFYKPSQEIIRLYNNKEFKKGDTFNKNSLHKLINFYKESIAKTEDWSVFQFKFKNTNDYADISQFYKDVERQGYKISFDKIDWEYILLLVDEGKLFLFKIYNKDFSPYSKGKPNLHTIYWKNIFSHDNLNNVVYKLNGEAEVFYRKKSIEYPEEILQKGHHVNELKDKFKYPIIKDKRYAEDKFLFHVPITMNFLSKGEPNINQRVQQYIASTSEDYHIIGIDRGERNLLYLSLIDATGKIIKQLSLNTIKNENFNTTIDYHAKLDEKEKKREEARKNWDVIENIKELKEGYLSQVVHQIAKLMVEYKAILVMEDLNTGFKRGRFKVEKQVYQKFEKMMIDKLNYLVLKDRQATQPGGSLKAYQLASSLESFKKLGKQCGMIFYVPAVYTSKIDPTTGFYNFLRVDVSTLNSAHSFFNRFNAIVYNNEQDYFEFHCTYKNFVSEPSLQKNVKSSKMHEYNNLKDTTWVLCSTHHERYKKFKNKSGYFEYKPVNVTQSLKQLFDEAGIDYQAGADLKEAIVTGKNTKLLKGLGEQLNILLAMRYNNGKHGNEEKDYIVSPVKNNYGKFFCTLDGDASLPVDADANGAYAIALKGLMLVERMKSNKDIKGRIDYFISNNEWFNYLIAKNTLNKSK
Assay: cell_activity; rice protoplast; PAM 5'-YYV

Binder	activity [% indel]
gRNA gTGW6-2 (UkCpf1 DR + spacer) ; TGW6-2 target (ssRNA ; dsDNA) RNA: AUUUCUACUAUUGUAGAUUUUCACCGACAGCAGCAUGAACU DNA 1: TTTCACCGACAGCAGCATGAACT DNA 2: AGTTCATGCTGCTGTCGGTGAAA	0.39
gRNA gTGW6-3 (UkCpf1 DR + spacer) ; TGW6-3 target (ssRNA ; dsDNA) RNA: AUUUCUACUAUUGUAGAUUUGACCUGCCAGGCUAUCCUGAU DNA 1: TTGACCTGCCAGGCTATCCTGAT DNA 2: ATCAGGATAGCCTGGCAGGTCAA	0.57
gRNA gTGW6-5 (UkCpf1 DR + spacer) ; TGW6-5 target (ssRNA ; dsDNA) RNA: AUUUCUACUAUUGUAGAUCGUGUAGCUGGGGCUGUACGUGU DNA 1: CGTGTAGCTGGGGCTGTACGTGT DNA 2: ACACGTACAGCCCCAGCTACACG	0.73

From US20220186206, “NOVEL Cas ENZYME AND SYSTEM, AND USE THEREOF” (SHANDONG SHUNFENG BIOTECHNOLOGY CO., LTD., published 2022)
